IntAct's records for PubMed 14596906

B1: Formin-binding protein 1 (Homo sapiens), Q96RU3 (parent)
chain: MSWGTELWDQFDNLEKHTQWGIDILEKYIKFVKERTEIELSYAKQLRNLSKKYQPKKNSKEEEEYKYTSCKAFISNLNEMNDYAGQHEVISENMASQIIVDLARYVQELKQERKSNFHDGRKAQQHIETCWKQLESSKRRFERDCKEADRAQQYFEKMDADINVTKADVEKARQQAQIRHQMAEDSKADYSSILQKFNHEQHEYYHTHIPNIFQKIQEMEERRIVRMGESMKTYAEVDRQVIPIIGKCLDGIVKAAESIDQKNDSQLVIEAYKSGFEPPGDIEFEDYTQPMKRTVSDNSLSNSRGEGKPDLKFGGKSKGKLWPFIKKNKLMSLLTSPHQPPPPPPASASPSAVPNGPQSPKQQKEPLSHRFNEFMTSKPKIHCFRSLKRGLSLKLGATPEDFSNLPPEQRRKKLQQKVDELNKEIQKEMDQRDAITKMKDVYLKNPQMGDPASLDHKLAEVSQNIEKLRVETQKFEAWLAEVEGRLPARSEQARRQSGLYDSQNPPTVNNCAQDRESPDGSYTEEQSQESEMKVLATDFDDEFDDEEPLPAIGTCKALYTFEGQNEGTISVVEGETLYVIEEDKGDGWTRIRRNEDEEGYVPTSYVEVCLDKNAKDS

Variants of: B1
Details: with tnks1_human TNKS
For R515A, the “effect of a mutation on the interaction” value was “decreasing interaction”.
R515A;D519A was tested, and the “effect of a mutation on the interaction” value was “disrupting interaction”.
